The chains are these.
B1: Hairpin Ribozyme (parent)
chain: GUCCUCUUUCACGUGCGCGUGAAAGAGAGAAGUGAACCAGAGAAACACACGUUGUGGUAUAUUACCUGGUA

In this series the parent is B1. As to the kind of experiment: self-cleavage, relative activity (ratio to wild type); higher = more cleavage; co-transcriptional.
In the case of C16G A45G, the self-cleavage stood at 0.126.

Take A41U C65U: the self-cleavage stood at 1.19.

As for U33G A41C, the self-cleavage turned out to be 0.156.

As for A49C U53G, the self-cleavage was 0.0631.

G34A U70A: the self-cleavage amounted to 1.14.

For C37U A43C, the self-cleavage was 0.126.

Turning to U53G A61C, the self-cleavage was determined as 0.0932.

As for A30U G34U, the self-cleavage was found to be 0.805.

Consider G56C U67G, for which the self-cleavage was determined as 0.203.

In the case of U7C A59G, the self-cleavage stood at 0.088.

C12A A24C: the self-cleavage is 0.914.

With A39C G69U, the self-cleavage worked out at 0.147.

Turning to C38G U53C, the self-cleavage came to 0.196.

With G13C C46U, the self-cleavage worked out at 0.218.

For A36G C48G, the self-cleavage amounted to 0.259.

As to G21A A64C, the self-cleavage came to 0.207.

In the case of C18U A64U, the self-cleavage stood at 0.109.

With G1U U67G, the self-cleavage stood at 0.097.

With C10G G27U, the self-cleavage came to 0.195.

For G32A C48G, the self-cleavage came to 0.117.

Consider C3G C4A, for which the self-cleavage is 0.185.

For G19C A26G, the self-cleavage was determined as 0.692.

Turning to G21A A35C, the self-cleavage amounted to 0.788.

As to U9A A59U, the self-cleavage is 0.14.

A45G A47G: the self-cleavage is 0.101.

Take U14C A44C: the self-cleavage came to 0.241.

Consider C38G C50G, for which the self-cleavage was determined as 0.0871.

Turning to G17A A36U, the self-cleavage amounted to 0.544.

Regarding U5C G25A, the self-cleavage was 0.265.

On to U52A U60G, for which the self-cleavage was found to be 0.54.

On to A26G G68C, for which the self-cleavage stood at 0.312.

Consider A23U U63A, for which the self-cleavage worked out at 0.142.

Consider G13U A31G, for which the self-cleavage is 0.499.

For the variant A39G G68C, the self-cleavage worked out at 0.103.

Take A28C G68U: the self-cleavage was 0.214.

For A35U G42C, the self-cleavage turned out to be 0.246.

Regarding G15A A36C, the self-cleavage was determined as 0.815.

Take A36U C48G: the self-cleavage is 0.182.

In the case of C6G U8G, the self-cleavage is 0.269.

With G1C U70G, the self-cleavage stood at 0.166.

Take A11C A59C: the self-cleavage turned out to be 0.0956.

For the variant C3G G27A, the self-cleavage came to 0.266.

C3G G27C: the self-cleavage is 0.0838.

Regarding A41G C66G, the self-cleavage was determined as 0.255.

Take G19A A43G: the self-cleavage worked out at 0.16.

With G54U A71C, the self-cleavage was 1.1.

On to G42A C66G, for which the self-cleavage amounted to 0.113.

C12U A59U: the self-cleavage stood at 0.182.

On to U5A A22G, for which the self-cleavage was 0.308.

Take G19C G68A: the self-cleavage amounted to 0.276.

C37A C66G: the self-cleavage worked out at 0.105.

For U8A G40C, the self-cleavage was found to be 0.156.

C12U A23G: the self-cleavage amounted to 0.965.

For C3G U62G, the self-cleavage worked out at 0.128.

A44U C46A: the self-cleavage came to 0.116.

As to U8C G69U, the self-cleavage stood at 0.186.

For the variant A41G U70G, the self-cleavage was 0.677.

For C4G G17A, the self-cleavage amounted to 0.159.

As for C50A U62A, the self-cleavage came to 0.0965.

In the case of C18A G29C, the self-cleavage is 0.118.

With A59C C65A, the self-cleavage was determined as 0.0683.

Turning to A30C G32C, the self-cleavage is 0.12.

Consider G19C U58G, for which the self-cleavage worked out at 0.705.

Take U53G G56A: the self-cleavage turned out to be 0.195.

As to A22C G25C, the self-cleavage is 0.182.

Consider A23C U62G, for which the self-cleavage stood at 0.0867.

G17A U53C: the self-cleavage is 1.01.

Take A22C A39C: the self-cleavage came to 0.539.

Turning to G19C A28C, the self-cleavage came to 0.304.

For U2C A24C, the self-cleavage is 0.227.

Regarding G19U C38A, the self-cleavage was 0.141.

On to G21U A36G, for which the self-cleavage came to 1.07.

In the case of C10G A43U, the self-cleavage was found to be 0.157.

As for A45G G56A, the self-cleavage turned out to be 0.183.

Take A22U A31U: the self-cleavage was 0.12.

As to A35G G69C, the self-cleavage worked out at 0.204.

In the case of G27A A45C, the self-cleavage stood at 0.186.

For the variant U52G U63A, the self-cleavage is 0.139.

As to U33A C50G, the self-cleavage amounted to 0.211.

As for A24C G32U, the self-cleavage was found to be 0.166.

On to G40A U62G, for which the self-cleavage came to 0.133.

With G42C A59G, the self-cleavage amounted to 0.195.

With A11C U70A, the self-cleavage came to 0.877.

A11U G42C: the self-cleavage stood at 0.271.

As to U14G U53C, the self-cleavage worked out at 0.925.

With U14A U67A, the self-cleavage was determined as 0.188.

Take C46A U63A: the self-cleavage was 0.12.

A26G A64G: the self-cleavage worked out at 0.55.

Turning to A39G U60C, the self-cleavage was 0.424.

With G13U U55A, the self-cleavage turned out to be 0.263.

Consider A39C U62C, for which the self-cleavage amounted to 0.161.

On to C3U U8C, for which the self-cleavage was determined as 0.253.

In the case of C12U G42U, the self-cleavage worked out at 0.355.

A39U C66G: the self-cleavage was found to be 0.135.

On to U5C U60A, for which the self-cleavage worked out at 0.392.

Consider U2C U5A, for which the self-cleavage came out at 0.118.

In the case of U5C U8C, the self-cleavage is 0.313.

With G13A A30U, the self-cleavage was 0.113.

In the case of C6A A11G, the self-cleavage was found to be 0.635.

Take A26G U55A: the self-cleavage worked out at 0.283.

Turning to C3U A64G, the self-cleavage was found to be 0.212.

For A43C A59C, the self-cleavage came out at 0.195.

Turning to U14G G54U, the self-cleavage worked out at 0.491.

On to A64U A71G, for which the self-cleavage was 0.311.

Consider G17A A23G, for which the self-cleavage amounted to 0.824.

Regarding U53G U55A, the self-cleavage is 0.269.

On to U53G U55C, for which the self-cleavage stood at 0.369.

Take G1C G69C: the self-cleavage was 0.303.

For C10G A31U, the self-cleavage came to 0.084.

With A35U A44G, the self-cleavage came to 0.234.

With C16G G42C, the self-cleavage was determined as 0.152.

Turning to U14G A22C, the self-cleavage is 0.75.

As for C6A U63A, the self-cleavage was found to be 0.144.

With C37U A41G, the self-cleavage turned out to be 0.994.

With G54U A61U, the self-cleavage was found to be 0.268.

Turning to G1U C66G, the self-cleavage worked out at 0.117.

As for C3G U67C, the self-cleavage was 0.104.

In the case of U52G U60C, the self-cleavage stood at 1.08.

Regarding C3A A31U, the self-cleavage was 0.155.

G1U C12U: the self-cleavage was found to be 0.17.

With G1U C12G, the self-cleavage is 0.171.

Regarding U5C C37U, the self-cleavage is 0.348.

As to C3U C4U, the self-cleavage is 0.39.

Take G29C A44U: the self-cleavage was determined as 0.18.

As to A36U A43U, the self-cleavage turned out to be 0.0848.

Turning to G40A C46A, the self-cleavage was 0.184.

Regarding U2C A71G, the self-cleavage is 0.125.

As to C46U C48U, the self-cleavage stood at 0.139.

For U60A G68C, the self-cleavage was found to be 0.236.

Consider U58C G68U, for which the self-cleavage came out at 0.169.

In the case of A23C A61C, the self-cleavage worked out at 0.143.

In the case of U9C A43C, the self-cleavage came to 0.102.

On to U2G U67G, for which the self-cleavage is 0.194.

Turning to C3G C12A, the self-cleavage amounted to 0.254.

With U33A A64C, the self-cleavage turned out to be 0.143.

Regarding U7C A36G, the self-cleavage amounted to 0.925.

As for C46U U55C, the self-cleavage was determined as 0.0817.

Turning to A24U G42C, the self-cleavage is 0.394.

G13U C18U: the self-cleavage stood at 0.967.

A36U U52C: the self-cleavage is 0.765.

For A44U G69A, the self-cleavage worked out at 0.15.

For the variant A24U A28U, the self-cleavage is 0.521.

Take C6G U62G: the self-cleavage turned out to be 0.159.

In the case of G15A G57U, the self-cleavage was 0.3.

For the variant G13A U63A, the self-cleavage came out at 0.194.

For G40U C50A, the self-cleavage is 0.0746.

For the variant U53C A64U, the self-cleavage is 0.

Consider G1C A61U, for which the self-cleavage was 0.126.

Turning to A24U G32C, the self-cleavage was found to be 0.114.

Take C10U A28C: the self-cleavage came out at 0.305.

Consider A35C A36C, for which the self-cleavage worked out at 0.517.

As to G19C A61G, the self-cleavage worked out at 0.144.

Turning to G19C A61U, the self-cleavage stood at 0.25.

G42U U63A: the self-cleavage came out at 0.195.

Turning to G51A, the self-cleavage amounted to 1.03.

Consider A45C A49G, for which the self-cleavage amounted to 0.0463.

For C6G U63G, the self-cleavage was 0.19.

In the case of G15C A30U, the self-cleavage was 0.293.

Consider U14G U55A, for which the self-cleavage stood at 0.0772.

Consider C37A A71C, for which the self-cleavage turned out to be 0.526.

As for A41U U55C, the self-cleavage was 0.762.

With C3U U9A, the self-cleavage is 0.299.

For the variant C10A G19C, the self-cleavage is 0.509.

For the variant C12G G54C, the self-cleavage was 0.246.

As to A47G U67G, the self-cleavage was 0.0884.

In the case of C6U G34U, the self-cleavage amounted to 1.21.

As to A22C A71U, the self-cleavage was determined as 0.685.

The record behind these values is the RNAGym collection of RNA variant scans (doi:10.7554/elife.80360).
